According to PMC10350915, “Development of a New Class of CXCR4-Targeting Radioligands Based on the Endogenous Antagonist EPI-X4 for Oncological Applications” (Journal of Medicinal Chemistry, 2023):
Square brackets hold non-standard residues; d marks the D form. Side chains are listed from the residue outwards. Ends that are not written are not given here. Peptide text beside a SMILES is read from it. * marks the point of attachment. DOTA = O=C(O)CN1CCN(CC(=O)O)CCN(CC(=O)*)CCN(CC(=O)O)CC1; dTyr(3-I) = N[C@H](Cc1ccc(O)c(I)c1)C(=O)O; 2Nal = N[C@@H](Cc1ccc2ccccc2c1)C(=O)O; Palmitoyl = CCCCCCCCCCCCCCCC(=O)*; dNMeOrn = CN[C@H](CCCN)C(=O)O; 4Amb = NCc1ccc(C(=O)O)cc1

How the values were obtained:
[1] = cited from earlier work
[2] = in vivo; cited from earlier work
[3] = cited from earlier work; remark: listed apart in the source
[4] = assay type: physicochemical; settings: pH 7.4
Description: In a prelubricated eppendorf tube, a presaturated mixture of 500 μL of octanol and 500 μL of phosphate-buffered saline (PBS) were added. 1 pmol of the ^177Lu-labeled ligand was pipetted into this mixture, vortexed for 30 min, and then centrifuged at 3000 rpm for 10 min to achieve phase separation. Aliquots of 100 μL were removed from the octanol and from the PBS phase and the activity measured in a γ-counter. The distribution coefficient was calculated as the average log ratio value of the radioactivity in the organic fraction and PBS fraction.

[5] = assay type: in vitro ADME, human
Description: Representative radiochromatograms are provided in Figure S25 for ^177Lu-1, ^177Lu-2, and ^177Lu-7. This included ^177Lu-9 despite its fatty acid chain.
(§1) Figure 3 Stability of the ^177Lu ligands in human plasma at 37 °C, expressed as % of intact radioligand over time, assessed by radio-HPLC. The % of plasma protein binding (PPB) after 60 min incubation is provided in parenthesis and it is expressed as the % of radioligand in the protein fraction (pellet) versus the total activity in the plasma. TEXT PRINTED IN THE PICTURE: ^177Lu-1: PPB: 35% | ^177Lu-2: PPB: 22% | ^177Lu-5: PPB: 42% | ^177Lu-6: PPB: 38% | ^177Lu-7: PPB: 39% | ^177Lu-9: PPB: 37%
To 1 mL of fresh human plasma, previously equilibrated at 37 °C, 500 pmol (8–10 MBq) of each ^177Lu-labeled ligand was added. The mixture was incubated at 37 °C for different time points (0, 15, 30, 60, and 120 min). At each time point, a 100 μL aliquot was removed and treated with 1.5 excess (v/v) of acetonitrile, to precipitate plasma proteins, followed by centrifugation for 5 min at 3500 rpm. The supernatant was collected and the process of protein precipitation was repeated. Afterward, 100 μL from the supernatant was taken, diluted with water at a ratio of 1:10 (v/v), and injected into radio-HPLC. The radioligand (in)stability was assessed by quantifying the percentage of intact radioligand over time.

[6] = assay type: in vitro ADME; settings: human, plasma, plasma protein binding (PPB)
Description: as §1
For the determination of plasma protein binding (PPB), 100 μL from the plasma incubated with the ^177Lu ligand was removed and measured in a γ-counter (total radioactivity). Protein precipitation and separation followed, as described above. The supernatant and the protein pellet were then measured in a γ-counter. The percentage of plasma protein binding was calculated as the ratio between the protein-bound radioactivity and the total radioactivity in the plasma.

[7] = Shelf-life of 177Lu-labeled ligands at room temperature (radio-HPLC); assay type: physicochemical
Description: The shelf-life of each ^177Lu-labeled ligand was monitored at room temperature up to 24 h after radiolabeling.
The shelf-lives of ^177Lu-labeled ligands were assessed at room temperature (RT) in the buffer used for labeling, as described above. For the analysis, 5 μL was withdrawn at desired time points (0, 1, 2, 4, and 24 h) from the stock solution and mixed with 50 μL of the Ca-DTPA solution. 20 μL of this mixture was withdrawn and injected in RP-HPLC.

Jurkat xenografts = assay type: in vivo, mouse; settings: 1 h p.i., SPECT/CT or PET/CT
Description: The ability of the ^177Lu ligands to target CXCR4 in vivo was assessed by SPECT/CT imaging in Jurkat xenografts. […] 1 h after injection, the remaining amount of radioligand in the body (and vice versa, the washout) was quantified by measuring the total body activity (mouse) in a dose calibrator. The % of the radioligand remaining in the body after 1 h is reported in Figure 6A as % of the remaining activity in reference to the injected activity (100%).
Figure 6 SPECT/CT images as maximum intensity projections (MIPs) of Jurkat tumor-bearing mice at 1 h p.i. of ^177Lu-labeled ligands (200 pmol, ∼15 MBq). […] (B) Same SPECT/CT images of ^177Lu-1, ^177Lu-2, ^177Lu-5, and ^177Lu-6, adapted in a lower scale. T: tumor, L: liver, and K: kidneys. […] TEXT PRINTED IN THE PICTURE: (A) ^177Lu-1: Remaining Activity (% injected): 6 % | (A) ^177Lu-2: Remaining Activity (% injected): 7 % | (A) ^177Lu-5: Remaining Activity (% injected): 7 % | (A) ^177Lu-6: Remaining Activity (% injected): 8 % | (A) ^177Lu-7: Remaining Activity (% injected): 55 % | (A) ^177Lu-9: Remaining Activity (% injected): 94 %
The experimental protocol involving animals was approved by the Veterinary Office (Department of Health) of the Cantonal Basel-Stadt (Approval No. 30515) in accordance with the Swiss regulations for animal treatment. Female athymic nude-Foxn1^nu/Foxn1^+ mice (Envigo, The Netherlands), 4–6 weeks old, were injected subcutaneously with 10^7 Jurkat cells in a 200 μL (1:1) mixture of PBS and Matrigel (CorningMatrigelMembrane matrix, Fischer Scientific, Germany) on the right shoulder. The tumors were allowed to grow for 3–4 weeks before commencement of the experiments.
Nude mice bearing Jurkat xenografts were intravenously injected via the tail vein with ∼15 MBq (200 pmol) of the ^177Lu ligands and 8 MBq (200 pmol) of ^68Ga-7 were euthanized 1 h post injection (p.i.). The radioactivity in the syringe before and after injection was measured followed by measuring the amount of radioactivity remaining in the sacrificed mice. […]

Ghost-CXCR4 cells = experiment: Cellular uptake and distribution in Ghost-CXCR4 cells; assay type: cell-based, human; settings: 37 °C, 60 min
Description: Figure 4 In vitro assessment in Ghost-CXCR4 cells at 37 °C. […] Each experiment was performed in triplicate. Results are means ± SD [% of applied activity] from a minimum of two separate experiments. […] Cellular uptake was interrupted at 15, 30, and 60 min by removing the medium and washing twice with ice-cold PBS. The cell surface-bound radioligand was obtained by washing cells twice with ice-cold glycine buffer (pH 2.8) followed by a collection of the internalized fraction after treating the cells with 1 M sodium hydroxide (NaOH). The activity in each fraction was measured in a γ-counter. […] The results were expressed as a percentage of the applied radioactivity after subtracting the nonspecific uptake.

CC[C@H](C)[C@H](N)C(=O)N[C@@H](CC(C)C)C(=O)N[C@@H](CCCNC(=N)N)C(=O)N[C@@H](Cc1c[nH]c2ccccc12)C(=O)N[C@@H](CO)C(=O)N[C@@H](CCCNC(=N)N)C(=O)N[C@@H](CCCCN)C(=O)N[C@@H](CC(C)C)C(=O)N1CCC[C@H]1C(=O)N[C@@H](CS)C(=O)N[C@H](C(=O)N[C@@H](CO)C(=O)O)C(C)C [JM#21, I^1LRWSRK^7LPCVS^12]
half-life in human plasma [1]: ~6 min

CN1C(=O)[C@@H](Cc2ccc(O)cc2)NC(=O)CNC(=O)[C@H](Cc2ccc3ccccc3c2)NC(=O)[C@H](CCCN=C(N)N)NC(=O)[C@H]1CCCNC(=O)c1ccc(CNC(=O)CN2CCN(CC(=O)[O-])CCN(CC(=O)[O-])CCN(CC(=O)[O-])CC2)cc1.[68Ga+3] [^68Ga-Pentixafor, cyclo(D-Tyr^1-D-[NMe]Orn^2(AMBS-(^68Ga-DOTA))-Arg^3-Nal^4-Gly^5)] (cyclo([2Nal]G[dY][dNMeOrn]([4Amb-DOTA])R))
activity in the blood [2]: 1.08 ± 0.27 %IA/g
uptake in the kidneys [2]: 3.06 ± 0.63 %IA/g

CN1C(=O)[C@@H](Cc2ccc(O)c(I)c2)NC(=O)CNC(=O)[C@H](Cc2ccc3ccccc3c2)NC(=O)[C@H](CCCN=C(N)N)NC(=O)[C@H]1CCCNC(=O)c1ccc(CNC(=O)CN2CCN(CC(=O)O)CCN(CC(=O)O)CCN(CC(=O)O)CC2)cc1.[177Lu] [^177Lu-Pentixather, cyclo(3-iodo-D-Tyr^1-D-[NMe]Orn^2(AMBS-(^177Lu-DOTA)-Arg^3-Nal^4-Gly^5)] (cyclo([2Nal]G[dTyr(3-I)][dNMeOrn]([4Amb-DOTA])R))
plasma protein binding (PPB) [3]: 97%

CC[C@H](C)[C@H](N)C(=O)N[C@@H](CC(C)C)C(=O)N[C@@H](CCCNC(=N)N)C(=O)N[C@@H](Cc1c[nH]c2ccccc12)C(=O)N[C@@H](CO)C(=O)N[C@@H](CCCNC(=N)N)C(=O)N[C@@H](CCCCN)C(=O)N[C@@H](CC(C)C)C(=O)N1CCC[C@H]1C(=O)N[C@@H](CO)C(=O)N[C@H](C(=O)N[C@@H](CO)C(=O)N[C@@H](CCCCNC(=O)CN1CCN(CC(=O)O)CCN(CC(=O)O)CCN(CC(=O)O)CC1)C(=O)O)C(C)C [^177Lu-2, metal not drawn] (H-ILRWSRKLPSVSK(DOTA)-OH; N-terminus and C-terminus assumed)
logD [4]: -3.23 ± 0.23
time to complete degradation in human plasma [5]: 60 min
fraction unbound at 60 min [6]: 0.78

LVRYTKKVPQVSTPTL [EPI-X4]
half-life in human plasma [1]: 17 min

CCCCCCCCCCCCCCCC(=O)N[C@@H](CCC(=O)O)C(=O)NCCCC[C@H](NC(=O)[C@H](CCCNC(=N)N)NC(=O)[C@H](CO)NC(=O)[C@H](Cc1c[nH]c2ccccc12)NC(=O)[C@H](CCCNC(=N)N)NC(=O)[C@H](CC(C)C)NC(=O)[C@H](N)CC(C)C)C(=O)N[C@@H](CCCCNC(=O)CN1CCN(CC(=O)O)CCN(CC(=O)O)CCN(CC(=O)O)CC1)C(N)=O [^177Lu-9, metal not drawn] (H-[dL]LRWSRK([Glu-Palmitoyl])K(DOTA)-NH2; N-terminus assumed)
radiochemical purity (%) ([7]; 0 h after radiolabeling): 96 ± 3%
radiochemical purity (%) ([7]; 1 h after radiolabeling): 96 ± 2%
radiochemical purity (%) ([7]; 2 h after radiolabeling): 94 ± 1%
radiochemical purity (%) ([7]; 4 h after radiolabeling): 93 ± 1%
logD [4]: 0.29 ± 0.1
metabolic stability in plasma (in words) ([5]; human, plasma): high metabolic stability in plasma up to 4 h
visualization of CXCR4-expressing tumor xenograft by imaging (Jurkat xenografts): failed to visualize CXCR4-expressing tumors
fraction unbound at 60 min [6]: 0.63
cellular uptake (% of the applied activity) (Ghost-CXCR4 cells): 3.25 ± 0.06%
subcellular distribution (membrane-bound vs internalized) (Ghost-CXCR4 cells): almost entirely internalized
